Results taken from patent publication US20240360228A1 (BIOLEGEND, published 2024).

Molecular target: human chemokine (C-C motif) receptor 8 (CCR8) (human, UniProt P51685 1-355)
Test: cell-based or functional assay
Also: test concentration or dose not given here.

human chemokine (C-C motif) receptor 8 (CCR8), sequence (P51685 whole entry): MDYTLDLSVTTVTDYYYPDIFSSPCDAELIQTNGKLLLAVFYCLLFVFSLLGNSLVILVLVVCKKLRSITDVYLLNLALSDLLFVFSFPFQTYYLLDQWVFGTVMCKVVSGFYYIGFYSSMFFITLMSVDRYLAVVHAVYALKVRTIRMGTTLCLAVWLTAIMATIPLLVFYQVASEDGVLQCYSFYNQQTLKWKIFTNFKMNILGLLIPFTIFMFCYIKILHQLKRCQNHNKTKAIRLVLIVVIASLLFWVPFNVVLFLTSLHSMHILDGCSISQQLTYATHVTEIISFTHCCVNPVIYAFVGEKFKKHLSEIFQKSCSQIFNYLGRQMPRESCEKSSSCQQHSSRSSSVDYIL

| % hCCR8-Ba/F3 - THP-1 complexes | Binder |
| --- | --- |
| 1.88% | AB6 (antibody, V domains shown) VH: QVQLKESGPGLVQPSQTLSLTCTVSGFSLTSYHVSWVRQPPGKGLEWMGVIWTGGSTTYNSLLKSRLSISRDISKSQVFLKMNSLQTEDTATYYCARGGTVVKGGFAYWGQGTLVTVSS VL: DIQMTQSPASLSASLEEIVTITCQASQDIGNRLSWYQQKPGKSPQLLIYGATSLADGVPSRFSGSRSGTQYSLKISRLQVEDIGIYYCLQAYSTPLTFGSGTKLEIK |
| 2.2% | AB7 (antibody, V domains shown) VH: AVQLVESGGGLVQPKESLKISCAASGFTFSYAAMYWVRQTPGKGLEWVARIRTKPNNYATYYADSVKGRFTISRDDSKSMVYLQMDNLKSEDTAMYYCNIMGITRGYYFDYWGQGVMVTVSS VL: DIQMTQSPSFLSASVGDRVTINCKASQNINRYLNWYQQQLGEAPKLLIYNANNLQTGIPSRFSGSRSGTDFTLTISSLQPEDVATYFCLQHNSWPWTFGGGTKLELK |
